From patent US6399352B1, “Plant porphobilinogen synthase and fusion protein thereof” (Paradigm Genetics, Inc., priority 1999, dated 2002)

Assay: Enzyme activity of plant thioredoxin-porphobilinogen synthase: PBG formation from ALA (EC 4.2.1.24)
Format: biochemical
Conditions: 37° C., 1 hour, Tricine buffer pH 7.9, 2.5 mM ALA, 5 mM MgCl2, 1.25 μg purified recombinant protein; Ehrlich's reagent, OD 555 nm
Method: Enzyme activity is tested in accordance with EC 4.2.1.24 using the following assay principle: [drawing 1] The enzyme activity of plant thioredoxin-porphobilinogen synthase (T-PPS) is measured as porphobilinogen (PBG) formation from δ-aminolevulinic acid (Aminolevulinate or ALA). A typical reaction is as follows: the reaction is carried out at 37° C. for 1 hour in Tricine buffer pH 7.9 or other suitable biochemical buffer, 2.5 mM ALA, 5 mM MgCl2 and 1.25 μg of purified recombinant protein from E. coli expression system in a final assay volume of 100 μl. PBG is quantified spectrophotometrically after reaction with the 100 μl Ehrlich's reagent solution. Optical density is determined after 60 minutes at 555 nm.

With “plant thioredoxin-porphobilinogen synthase: fusion protein of thioredoxin and tomato plant porphobilinogen synthase, expressed in E. coli (SEQ ID NO: 2)” the “enzyme activity (conversion of ALA to PBG)” value was “active”.
